For one protein, Km and kcat results are on record in PMC10638201, “Application of electrospun chitosan-based nanofibers as immobilization matrix for biomolecules” (Applied Microbiology and Biotechnology, 2023).

Substrate in the data set: COc1cc(CO)ccc1O
In words: purified protein. The data set is classed as biochemical, Rhodococcus jostii. The following applies: free EUGO, O2 as co-substrate (air), ambient conditions, 50 mM Glycine·NaOH buffer, pH 8.0, N = 1, called preliminary.

B1: eugenol oxidase (EUGO); 6xHis-eugenol-oxidase-StrepTag-II (Rhodococcus jostii RHA1) (protein)
chain: MTRTLPPGVSDERFDAALQRFRDVVGDKWVLSTADELEAFRDPYPVGAAEANLPSAVVSPESTEQVQDIVRIANEYGIPLSPVSTGKNNGYGGAAPRLSGSVIVKTGERMNRILEVNEKYGYALLEPGVTYFDLYEYLQSHDSGLMLDCPDLGWGSVVGNTLDRGVGYTPYGDHFMWQTGLEVVLPQGEVMRTGMGALPGSDAWQLFPYGFGPFPDGMFTQSNLGIVTKMGIALMQRPPASQSFLITFDKEEDLEQIVDIMLPLRINMAPLQNVPVLRNIFMDAAAVSKRTEWFDGDGPMPAEAIERMKKDLDLGFWNFYGTLYGPPPLIEMYYGMIKEAFGKIPGARFFTHEERDDRGGHVLQDRHKINNGIPSLDELQLLDWVPNGGHIGFSPVSAPDGREAMKQFEMVRNRANEYNKDYAAQFIIGLREMHHVCLFIYDTAIPEAREEILQMTKVLVREAAEAGYGEYRTHNALMDDVMATFNWGDGALLKFHEKIKDALDPNGIIAPGKSGIWSQRFRGQNL
notes: N-terminal His6 tag and C-terminal Strep-tag II, tags kept; gene from vector pEUGOA cloned into pET-28a(+) (pET-28-eugo-STII); E. coli BL21 (DE3) gold; Ni Sepharose purified; dimer, theoretical 124 kDa
Usually Km stands for the concentration of substrate that gives half-maximal velocity. A word on the kcat: it is the number of substrate molecules converted per active site and unit of time at saturation. As to B1, the Km stood at 80 ± 20 µM and the kcat was 5 ± 1 s⁻¹.
